The values below come from publication PMC3539201 (Journal of cell science, 2008).

This test deals with T1, torsinA (endogenous, 293T cells) (human (endogenous in 293T), UniProt O14656 21-332).
T1 sequence (looked up): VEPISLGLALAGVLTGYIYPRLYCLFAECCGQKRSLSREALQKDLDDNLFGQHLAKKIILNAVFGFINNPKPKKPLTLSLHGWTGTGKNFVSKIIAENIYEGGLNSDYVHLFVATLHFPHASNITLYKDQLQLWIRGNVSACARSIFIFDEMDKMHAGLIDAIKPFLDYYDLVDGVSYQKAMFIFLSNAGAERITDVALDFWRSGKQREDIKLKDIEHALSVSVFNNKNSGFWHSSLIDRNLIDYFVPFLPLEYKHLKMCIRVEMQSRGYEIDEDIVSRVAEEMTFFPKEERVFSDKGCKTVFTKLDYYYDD
The test is described as follows: co-IP.

B1: GFP-KASH-3α (domain or fragment, mouse, UniProt Q4FZC9 917-975, looked up)
chain: CSLLQKACRVALPLQLLLLLFLLLLFLLPAGEEERSCALANNFARSFALMLRYNGPPPT
In the case of B1, the “percentage immunoprecipitated from lysates by torsinA antibodies” value (“percentage immunoprecipitated” for short) stood at 11%.

B2: GFP-KASH-1 (domain or fragment)
chain: not shown
Take B2: the “percentage immunoprecipitated” value worked out at 21%.

B3: GFP-KASH-2 (domain or fragment)
chain: not shown
As to B3, the “percentage immunoprecipitated” value was determined as 12%.
